Consider one substance from PMC4382182, “Characterization of Phospho-(Tyrosine)-Mimetic Calmodulin Mutants” (PLoS ONE, 2015).

The test addresses endothelial nitric oxide synthase (eNOS) (bovine recombinant baculovirus-expressed in Sf9 cells) (bovine) (UniProt P29473).

Sequence of endothelial nitric oxide synthase (eNOS) (bovine recombinant baculovirus-expressed in Sf9 cells) (bovine) (P29473 whole entry): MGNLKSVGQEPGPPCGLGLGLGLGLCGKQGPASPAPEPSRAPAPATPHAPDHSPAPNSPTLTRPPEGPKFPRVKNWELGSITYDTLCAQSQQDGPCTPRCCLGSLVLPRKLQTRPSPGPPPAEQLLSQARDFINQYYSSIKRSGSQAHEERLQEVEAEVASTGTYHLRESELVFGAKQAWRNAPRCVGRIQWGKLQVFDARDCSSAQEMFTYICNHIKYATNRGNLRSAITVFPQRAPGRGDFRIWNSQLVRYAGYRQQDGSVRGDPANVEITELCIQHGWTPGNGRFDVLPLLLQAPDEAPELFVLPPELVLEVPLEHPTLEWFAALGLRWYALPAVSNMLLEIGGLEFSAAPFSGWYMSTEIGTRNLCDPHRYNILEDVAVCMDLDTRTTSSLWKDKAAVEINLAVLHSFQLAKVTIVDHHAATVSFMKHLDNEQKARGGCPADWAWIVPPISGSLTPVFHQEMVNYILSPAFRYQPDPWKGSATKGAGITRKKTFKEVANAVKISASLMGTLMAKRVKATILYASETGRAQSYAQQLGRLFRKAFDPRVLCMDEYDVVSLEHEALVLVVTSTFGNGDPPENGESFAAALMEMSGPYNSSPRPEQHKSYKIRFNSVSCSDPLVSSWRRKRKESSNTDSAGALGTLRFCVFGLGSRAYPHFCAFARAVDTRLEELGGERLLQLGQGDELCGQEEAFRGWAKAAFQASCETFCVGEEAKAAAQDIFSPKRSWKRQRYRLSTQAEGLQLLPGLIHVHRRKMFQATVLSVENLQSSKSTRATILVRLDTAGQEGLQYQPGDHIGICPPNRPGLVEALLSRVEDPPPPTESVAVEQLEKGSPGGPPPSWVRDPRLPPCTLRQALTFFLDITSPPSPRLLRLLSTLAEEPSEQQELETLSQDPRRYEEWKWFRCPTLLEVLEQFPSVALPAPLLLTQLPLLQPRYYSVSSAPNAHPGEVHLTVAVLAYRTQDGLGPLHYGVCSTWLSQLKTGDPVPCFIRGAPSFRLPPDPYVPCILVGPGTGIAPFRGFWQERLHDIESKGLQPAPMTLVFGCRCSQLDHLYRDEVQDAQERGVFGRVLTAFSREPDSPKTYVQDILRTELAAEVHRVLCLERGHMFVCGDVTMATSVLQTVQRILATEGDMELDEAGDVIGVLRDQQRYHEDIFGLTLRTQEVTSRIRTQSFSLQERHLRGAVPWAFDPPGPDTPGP

For “purified bovine brain phospho-(Y)-CaM (phosphorylated by c-Src and free of non-phosphorylated CaM) (from UniProt P62157 1-149) (natural protein)”, the increase of eNOS activity by phospho-(Y)-CaM over that by non-phosphorylated CaM, at increasing concentrations of CaM was determined as 30%.
